Measurements from paper PMC4208696 (Biophysical chemistry, 2014).
Like-named read-outs stand apart in the source and are kept apart here.

What was measured:
Assay in all cases: fluorescence polarisation
[1] = target: T1, CaM C-domain fragment, residues 76 to 148 (CaM_(76–148)) (mammalian (no species named), UniProt P0DP23 77-149)
[2] = target: T2, CaM N-domain fragment, residues 1 to 80 (CaM_(1–80)) (mammalian (no species named), UniProt P0DP23 2-81)
[3] = target: T3, full-length mammalian calmodulin (CaM_(1–148)) (mammalian (no species named), UniProt P0DP23 1-149)
[4] = target: T1, CaM C-domain fragment, residues 76 to …; remark: listed apart in the source
[5] = target: T2, CaM N-domain fragment, residues 1 to 80 …; remark: listed apart in the source
[6] = target: T3, full-length mammalian calmodulin …; remark: listed apart in the source

Row | Binder | Kd [1] | Kd [2] | Kd [3] | Kd [4] | Kd [5] | Kd [6]
1 | {5,6‑carboxyfluorescein}-KSKKAVWHKLLSKQRRRAVVACFRMTPLYN-NH2 [Fl–hRyR1(3614–3643)p: hRyR1(3614–3643)p with a 5,6-carboxyfluorescein moiety at the N-terminus] | ≤ 0.01 µM | 2.5 ± 0.83 µM | ≤ 0.001 µM | 24.9 ± 4.27 µM | ~1500 µM | 6.79 ± 3.05 µM
2 | {5,6‑carboxyfluorescein}-SRYGLLIKAFSMTAAETARRTREFR-NH2 [Fl–hRyR1(1975–1999)p: hRyR1(1975–1999)p with a 5,6-carboxyfluorescein moiety at the N-terminus] | 9.21 ± 0.82 µM | 12.5 ± 1.95 µM | 0.66 ± 0.01 µM | ~650 µM | ~7000 µM | ~850 µM
